This data set deals with SARS-CoV-2 spike protein (SARS-CoV-2, UniProt P0DTC2). Briefly: spectroscopic ellipsometry, immobilised aptamer; PBS (137 mM NaCl, 2.7 mM KCl, 10 mM phosphate, pH 7.4); […]. The note with it: protein: commercial; chain copies: 3.

The results in this text go back to article PMC10385375, “In Situ Monitoring of Aptamer–Protein Binding on a ZnO Surface Using Spectroscopic Ellipsometry”.

B1: spike aptamer (ssDNA)
DNA: CAGCACCGACCTTGTGCTTTGGGAGTGCTGGTCCAAGGGCGTTAATGGACA
modifications: 5' amine
As for B1, the binding result is recorded as “binds”.
